Source: the MegaScale stability set (Tsuboyama et al. 2023)

B1: HEEH_KT_rd6_3632 (parent)
chain: DAEELIELVERALKEGREIILLGVRITSEEAGKWFIEWIRRFL

Variants of: B1
Test: folding stability dG (cDNA display proteolysis); higher = more stable
Conditions: PBS, room temperature

Folding stability dG [kcal/mol]: each site, then its substitutions
L22: N 3.05, Q 3.13, C 4.73, T 3.08, E 2.7, V 3.3, A 3.2, P 2.68, W 4.08, K 3.05, G 3.01, R 3.31, H 3.12, D 2.66, M 3.53, F 3.63, I 3.56, S 3.1, Y 3.22
R25: G 3.32, E 3.28, Q 3.41, M 3.66, I 3.67, P 3.14, S 3.51, L 3.81, K 3.57, H 3.72, V 3.64, Y 3.65, A 3.68, T 3.56, D 3.21, W 3.77, N 3.44, F 3.79
L21: V 3.9, G 2.83, H 2.92, I 3.83, A 3.37, E 3.06, Y 3.28, T 2.78, R 3.14, D 2.71, W 3.33, P 2.6, N 3.01, M 3.36, S 3.12, Q 2.93, K 2.98, F 3.49
R17: Y 3.84, A 3.6, I 3.85, T 3.45, L 3.9, M 3.6, K 3.59, Q 3.27, V 3.79, W 3.75, E 3.23, F 3.63, G 3.3, S 3.27, P 3.36, N 3.3, H 3.54, D 2.99
G16: I 4.25, Y 3.67, H 3.58, S 3.49, W 4, V 3.74, N 3.58, D 3.07, F 3.97, Q 3.42, K 3.53, A 3.84, L 4.32, E 3.1, R 3.44, M 4.09, C 4.34, P 3.26, T 3.36
T27: S 3.67, N 3.99, R 3.52, K 3.59, E 3.44, F 4.03, G 3.67, A 3.94, Y 3.74, D 4.05, I 3.9, H 3.79, V 3.91, L 3.98, Q 3.44, P 3.18, M 3.88, W 3.95
G32: V 3.86, R 3.72, H 3.44, Y 3.85, S 3.39, D 3.14, I 4.12, L 4.17, W 4.07, M 4.07, E 3.22, Q 3.43, P 3.39, T 3.64, F 4.17, K 3.68, A 4.05, N 3.38
K14: Y 3.31
E29: H 3.67, N 3.81, T 3.83, D 3.67, P 4.06, Q 3.97, M 3.92, K 3.82, A 3.89, V 3.79, Y 3.96, L 3.93, S 3.71, R 3.71, I 3.94, G 3.63, W 4.1, F 3.88
K33: C 3.99, D 3.38, A 3.77
I20: S 3.18, R 3.13, W 3.4, V 3.66, H 3.17, P 2.65, M 3.26, N 3.08, K 3.01, A 2.94, F 3.32, G 2.71, E 3.32, T 3.73, Q 3.12, D 2.84, L 3.35, Y 3.27
S28: G 3.83, D 3.63, C 3.83, E 3.23, I 3.46, H 3.36, P 3.5, L 3.73, V 3.57, R 3.43, W 3.91, M 3.33, F 3.62, T 3.71, Q 3.13, A 3.52, N 3.78, Y 3.47, K 3.17
E30: W 4.01, G 3.64, K 3.65, I 3.75, P 3.54, S 3.69, Q 3.77, D 3.63, N 3.56, V 3.94, M 3.86, Y 3.75, A 4, R 3.84, L 3.91, H 3.59, T 3.57, F 3.76
A31: D 3.88, L 4.06, V 4.27, Y 3.62, W 4.01, F 3.83, T 3.86, N 3.49, R 3.61, P 3.15, M 4.08, H 3.68, E 4.2, S 3.65, K 3.6, Q 3.99, I 4.34, G 3.71
G23: V 3.88, P 3.28, K 3.55, Y 3.91, F 3.93, C 3.82, E 3.41, L 4.02, M 3.91, S 3.56, I 3.87, N 3.31, T 3.63, D 3.37, A 3.67, R 3.54, W 4.11, H 3.6, Q 3.61
E15: G 3.31, N 3.57, P 3.21, F 3.64, S 3.73, Y 3.67, D 3.7, W 3.95, L 3.58, I 3.62, K 3.45, Q 3.46, V 3.57, H 3.54, A 3.7, M 3.68, T 3.48, R 3.38
E18: M 3.66, H 3.85, W 3.78, R 3.79, D 3.44, P 3.64, N 3.69, G 3.58, T 3.94, Y 3.78, K 3.55, L 3.83, Q 3.74, A 3.74, S 3.83, F 3.87, V 3.91, I 4.02
V24: A 3.15, K 3.05, M 3.43, F 3.9, N 2.99, W 3.76, H 3.42, S 2.86, R 3, T 3.25, Q 3.13, L 3.43, D 2.71, I 3.98, G 3.22, E 2.9, Y 3.55, P 3.03
I26: K 3.26, E 3.33, P 3.18, D 2.97, M 3.32, V 3.29, N 3.21, Q 3.21, Y 3.34, H 3.09, S 3.07, F 3.44, A 3.34, R 3.38, T 3.49, L 3.37, C 4.36, G 2.89, W 3.39
I19: Y 3.23, V 3.4, A 3.18, W 3.44, M 3.23, S 2.75, R 2.81, H 2.98, L 3.56, P 2.74, E 2.63, G 2.96, F 3.43, T 2.97, Q 2.91, C 4.54, N 2.86, D 2.66, K 2.94
